{
  "source": "paper PMC9844003",
  "about": "(2023)",
  "binders": {"B1": {"name": "BC31M5 (hIgG1 form) (antibody, V domains shown)", "VH": "QVQLVQSGAEVKKPGASVKVSCKASGYTFTSYGISWVRQAPGQGLEWMGWISAYNGNTNYAQKLQGRVTMTTDTSTSTAYMELRSLRSDDTAVYYCARGTVYFDYWGQGTLVTVSS", "VL": "EIVLTQSPATLSLSPGERATLSCRASQSLSRNHLAWYQQKPGQPPRLLIHWASTRESGVPDRFSGSGSGTDFTLTISSLQAEDVAVYYCQQHTQNTWTFGQGTKVEIK"}, "B2": {"name": "BC31M4 (hIgG1 form) (antibody, V domains shown)", "VH": "B1 VH with T100A", "VL": "B1 VL"}, "B3": {"name": "BC27 (hIgG1 form) (antibody, V domains shown)", "VH": "B1 VH with T100K", "VL": "B1 VL with H92Y, T93Y, Q94T, N95A, T96S"}},
  "key": {"[1]": {"target": "T1, extracellular domain of CD47 fused to a His(×6)-Avi-tag (human)", "T1 sequence (chain, as listed by the source)": "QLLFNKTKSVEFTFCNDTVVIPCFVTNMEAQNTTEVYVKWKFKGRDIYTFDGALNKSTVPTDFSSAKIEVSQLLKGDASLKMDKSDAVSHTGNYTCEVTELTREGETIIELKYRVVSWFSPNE", "assay": "SPR; pH 6.8"}, "[2]": {"target": "T1, extracellular domain of CD47 fused to a …", "assay": "SPR; pH 7.4"}, "[3]": {"target": "T2, full-length human CD47 stably expressed on CHO cells (CHO-hCD47) (human, UniProt Q08722 19-323)", "T2 sequence (Q08722 19-323)": "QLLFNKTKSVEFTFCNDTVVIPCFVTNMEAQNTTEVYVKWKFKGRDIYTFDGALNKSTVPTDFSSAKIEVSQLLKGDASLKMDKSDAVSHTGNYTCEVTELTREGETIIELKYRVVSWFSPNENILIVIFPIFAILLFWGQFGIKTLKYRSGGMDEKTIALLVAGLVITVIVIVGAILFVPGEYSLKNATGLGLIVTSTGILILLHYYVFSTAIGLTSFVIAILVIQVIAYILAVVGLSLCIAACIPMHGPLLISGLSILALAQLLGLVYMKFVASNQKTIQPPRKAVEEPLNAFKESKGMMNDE", "assay": "FACS; pH 6.8"}, "[4]": {"target": "T2, full-length human CD47 stably expressed …", "assay": "FACS; pH 7.4"}, "[5]": {"target": "T1, extracellular domain of CD47 fused to a …", "assay": "ELISA; pH 6.2"}, "[6]": {"target": "T1, extracellular domain of CD47 fused to a …", "assay": "ELISA; pH 6.4"}, "[7]": {"target": "T1, extracellular domain of CD47 fused to a …", "assay": "ELISA; pH 6.6"}, "[8]": {"target": "T1, extracellular domain of CD47 fused to a …", "assay": "ELISA; pH 6.8"}, "[9]": {"target": "T1, extracellular domain of CD47 fused to a …", "assay": "ELISA; pH 7.0"}, "[10]": {"target": "T1, extracellular domain of CD47 fused to a …", "assay": "ELISA; pH 7.2"}, "[11]": {"target": "T1, extracellular domain of CD47 fused to a …", "assay": "ELISA; pH 7.4"}, "[12]": {"target": "T1, extracellular domain of CD47 fused to a …", "assay": "ELISA; pH 7.6"}, "[13]": {"target": "T3, cell-surface CD47 on Raji, Jurkat and MDA-231 tumor cells (human (endogenous in Raji, Jurkat, …, UniProt Q08722 19-323))", "T3 sequence (Q08722 19-323)": "as above", "assay": "FACS; Raji, pH 6.8"}, "[14]": {"target": "T3, cell-surface CD47 on Raji, Jurkat and …", "assay": "FACS; Raji, pH 7.4"}, "[15]": {"target": "T3, cell-surface CD47 on Raji, Jurkat and …", "assay": "FACS; Jurkat, pH 6.8"}, "[16]": {"target": "T3, cell-surface CD47 on Raji, Jurkat and …", "assay": "FACS; Jurkat, pH 7.4"}, "[17]": {"target": "T3, cell-surface CD47 on Raji, Jurkat and …", "assay": "FACS; MDA-231, pH 6.8"}, "[18]": {"target": "T3, cell-surface CD47 on Raji, Jurkat and …", "assay": "FACS; MDA-231, pH 7.4"}, "[19]": {"target": "T2, full-length human CD47 stably expressed …", "assay": "FACS; pH 6.8, competition with bio-SIRPα-Fc"}, "[20]": {"target": "T2, full-length human CD47 stably expressed …", "assay": "FACS; pH 7.4, competition with bio-SIRPα-Fc"}, "[21]": {"target": "T3, cell-surface CD47 on Raji, Jurkat and …", "assay": "FACS; Raji, pH 6.8, competition with bio-SIRPα-Fc"}, "[22]": {"target": "T3, cell-surface CD47 on Raji, Jurkat and …", "assay": "FACS; Raji, pH 7.4, competition with bio-SIRPα-Fc"}, "[23]": {"target": "T3, cell-surface CD47 on Raji, Jurkat and …", "assay": "FACS; Jurkat, pH 6.8, competition with bio-SIRPα-Fc"}, "[24]": {"target": "T3, cell-surface CD47 on Raji, Jurkat and …", "assay": "FACS; Jurkat, pH 7.4, competition with bio-SIRPα-Fc"}, "[25]": {"target": "T3, cell-surface CD47 on Raji, Jurkat and …", "assay": "FACS; MDA-231, pH 6.8, competition with bio-SIRPα-Fc"}, "[26]": {"target": "T3, cell-surface CD47 on Raji, Jurkat and …", "assay": "FACS; MDA-231, pH 7.4, competition with bio-SIRPα-Fc"}},
  "note": "Positions count from the first letter of the chain named.",
  "data": [
    {"binder": "B1", "values": [
      {"measurement": "Kd", "setting": "[1]", "result": 3.6, "unit": "nM"},
      {"measurement": "Kd", "setting": "[2]", "result": 6.9, "unit": "nM"},
      {"measurement": "EC50", "setting": "[3]", "result": 4.8, "unit": "nM"},
      {"measurement": "EC50", "setting": "[4]", "result": 4.1, "unit": "nM"},
      {"measurement": "EC50", "setting": "[5]", "result": 0.06, "unit": "nM"},
      {"measurement": "EC50", "setting": "[6]", "result": 0.05, "unit": "nM"},
      {"measurement": "EC50", "setting": "[7]", "result": 0.05, "unit": "nM"},
      {"measurement": "EC50", "setting": "[8]", "result": 0.04, "unit": "nM"},
      {"measurement": "EC50", "setting": "[9]", "result": 0.04, "unit": "nM"},
      {"measurement": "EC50", "setting": "[10]", "result": 0.04, "unit": "nM"},
      {"measurement": "EC50", "setting": "[11]", "result": 0.04, "unit": "nM"},
      {"measurement": "EC50", "setting": "[12]", "result": 0.06, "unit": "nM"},
      {"measurement": "EC50", "setting": "[13]", "result": 0.7, "unit": "nM"},
      {"measurement": "EC50", "setting": "[14]", "result": 4, "unit": "nM"},
      {"measurement": "EC50", "setting": "[15]", "result": 1.5, "unit": "nM"},
      {"measurement": "EC50", "setting": "[16]", "result": 2, "unit": "nM"},
      {"measurement": "EC50", "setting": "[17]", "result": 1.2, "unit": "nM"},
      {"measurement": "EC50", "setting": "[18]", "result": 3.3, "unit": "nM"},
      {"measurement": "IC50", "setting": "[19]", "result": 4.1, "unit": "nM"},
      {"measurement": "IC50", "setting": "[20]", "result": 5.9, "unit": "nM"},
      {"measurement": "IC50", "setting": "[21]", "result": 1.2, "unit": "nM"},
      {"measurement": "IC50", "setting": "[22]", "result": 6.7, "unit": "nM"},
      {"measurement": "IC50", "setting": "[23]", "result": 4.2, "unit": "nM"},
      {"measurement": "IC50", "setting": "[24]", "result": 17.2, "unit": "nM"},
      {"measurement": "IC50", "setting": "[25]", "result": 1.7, "unit": "nM"},
      {"measurement": "IC50", "setting": "[26]", "result": 9.3, "unit": "nM"}
    ]},
    {"binder": "B2", "values": [
      {"measurement": "Kd", "setting": "[2]", "result": 457, "unit": "nM"},
      {"measurement": "EC50", "setting": "[3]", "result": 4.8, "unit": "nM"},
      {"measurement": "EC50", "setting": "[4]", "result": "~21.4", "unit": "nM"},
      {"measurement": "EC50", "setting": "[9]", "result": 0.04, "unit": "nM"},
      {"measurement": "EC50", "setting": "[10]", "result": 0.11, "unit": "nM"},
      {"measurement": "EC50", "setting": "[11]", "result": 0.51, "unit": "nM"},
      {"measurement": "EC50", "setting": "[13]", "result": 6.8, "unit": "nM"},
      {"measurement": "EC50", "setting": "[14]", "result": "~92", "unit": "nM"},
      {"measurement": "EC50", "setting": "[15]", "result": 1.54, "unit": "nM"},
      {"measurement": "EC50", "setting": "[16]", "result": "~131", "unit": "nM"},
      {"measurement": "EC50", "setting": "[17]", "result": 8.5, "unit": "nM"},
      {"measurement": "EC50", "setting": "[18]", "result": "~231", "unit": "nM"},
      {"measurement": "IC50", "setting": "[19]", "result": 5.4, "unit": "nM"},
      {"measurement": "IC50", "setting": "[20]", "result": "~30.4", "unit": "nM"},
      {"measurement": "IC50", "setting": "[21]", "result": 19.9, "unit": "nM"},
      {"measurement": "IC50", "setting": "[23]", "result": 35, "unit": "nM"},
      {"measurement": "IC50", "setting": "[25]", "result": 22.7, "unit": "nM"},
      {"measurement": "IC50", "setting": "[26]", "result": "~507", "unit": "nM"}
    ]},
    {"binder": "B3", "values": [
      {"measurement": "Kd", "setting": "[2]", "result": 1170, "unit": "nM"}
    ]}
  ]
}
